Publication PMC3316158

How the values were obtained:
[1] = molecular target: BRI1 W980 peptide (Arabidopsis); experiment: pull-down
[2] = molecular target: AtCaM6 (Arabidopsis thaliana calmodulin 6), recombinant (Arabidopsis thaliana) (UniProt Q03509); experiment: native gel or EMSA

| retained CaM7 with Ca^2+ relative to without Ca^2+ (densitometry) [1] | stoichiometry N (mol equivalent of peptide per AtCaM6) [2] | Substance |
| --- | --- | --- |
| 2.7 fold |  | His6–AtCaM7 (Arabidopsis thaliana calmodulin 7) (from UniProt P59220 1-149) (natural protein) |
|  | 1 | Peptide representing the CaM-binding domain of mammalian CaMKII (Ca^2+/CaM-dependent protein kinase II) |
